Experimental data published in patent publication US20240316154A1 (Eli Lilly, published 2024).
Read-outs that look alike come from different tables or passages of the source. Blank lines part the entries; values can stand above or below the binder they belong to.

Key:
[1] = molecular target: T1, human CNTF receptor (CNTFR) on IMR-32 cells (human, UniProt P26992 23-342); experiment: cell-based or functional assay
T1 sequence (looked up): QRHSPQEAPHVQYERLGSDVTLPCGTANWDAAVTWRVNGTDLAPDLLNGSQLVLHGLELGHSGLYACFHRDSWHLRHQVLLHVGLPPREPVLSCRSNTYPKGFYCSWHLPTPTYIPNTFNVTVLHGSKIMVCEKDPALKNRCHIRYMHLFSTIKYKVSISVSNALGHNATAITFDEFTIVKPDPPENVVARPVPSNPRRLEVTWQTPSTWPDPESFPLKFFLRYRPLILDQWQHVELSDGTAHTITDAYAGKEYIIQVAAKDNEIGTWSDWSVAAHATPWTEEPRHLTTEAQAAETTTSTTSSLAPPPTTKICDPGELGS

[2] = molecular target: T2, Dog serum albumin (dog, UniProt P49822 25-608); experiment: SPR, SA on chip, 1:1 fit, 25 C
T2 construct: bought; immobilised on a CM5 chip by amine coupling; also called Dog SA

[3] = molecular target: T3, Cynomolgus monkey serum albumin (cynomolgus monkey, UniProt A2V9Z4 25-608); experiment: SPR, SA on chip, 1:1 fit, 25 C
T3 construct: bought; immobilised on a CM5 chip by amine coupling; also called Cyno SA

[4] = molecular target: T4, Rat serum albumin (rat, UniProt P02770 25-608); experiment: SPR, SA on chip, 1:1 fit, 25 C
T4 construct: bought; immobilised on a CM5 chip by amine coupling; also called Rat SA

[5] = molecular target: T5, Cow serum albumin (cow, UniProt P02769 25-607); experiment: SPR, SA on chip, 1:1 fit, 25 C
T5 construct: bought; immobilised on a CM5 chip by amine coupling; also called Cow SA

[6] = molecular target: T6, Pig serum albumin (pig, UniProt P08835 25-607); experiment: SPR, SA on chip, 1:1 fit, 25 C
T6 construct: bought; immobilised on a CM5 chip by amine coupling; also called Pig SA

[7] = molecular target: T7, Mouse serum albumin (mouse, UniProt P07724 25-608); experiment: SPR, SA on chip, 1:1 fit, 25 C
T7 construct: bought; immobilised on a CM5 chip by amine coupling; also called Mouse SA

[8] = molecular target: T8, Human serum albumin (human, UniProt P02768 25-609); experiment: SPR, SA on chip, 1:1 fit, 25 C
T8 construct: bought; immobilised on a CM5 chip by amine coupling; also called Human SA

[9] = molecular target: T9, Rabbit serum albumin (rabbit, UniProt P49065 25-608); experiment: SPR, SA on chip, 25 C
T9 construct: bought; immobilised on a CM5 chip by amine coupling; also called Rabbit SA

[10] = molecular target: T9, Rabbit serum albumin; experiment: SPR, SA on chip, 25 C; remark: listed apart in the source
[11] = molecular target: T2, Dog serum albumin; experiment: SPR, SA on chip, 1:1 fit, 25 C; remark: listed apart in the source
[12] = molecular target: T3, Cynomolgus monkey serum albumin; experiment: SPR, SA on chip, 1:1 fit, 25 C; remark: listed apart in the source
[13] = molecular target: T4, Rat serum albumin; experiment: SPR, SA on chip, 1:1 fit, 25 C; remark: listed apart in the source
[14] = molecular target: T5, Cow serum albumin; experiment: SPR, SA on chip, 1:1 fit, 25 C; remark: listed apart in the source
[15] = molecular target: T6, Pig serum albumin; experiment: SPR, SA on chip, 1:1 fit, 25 C; remark: listed apart in the source
[16] = molecular target: T7, Mouse serum albumin; experiment: SPR, SA on chip, 1:1 fit, 25 C; remark: listed apart in the source
[17] = molecular target: T8, Human serum albumin; experiment: SPR, SA on chip, 1:1 fit, 25 C; remark: listed apart in the source
[18] = molecular target: human ErbB4 receptor (NCBI Ref. Seq. No. NP_001036064.1) (human, UniProt Q15303 26-1308); experiment: cell-based or functional assay
[19] = molecular target: T9, Rabbit serum albumin; experiment: SPR, SA on chip, 25 C; remark: listed apart in the source
[20] = molecular target: T2, Dog serum albumin; experiment: SPR, SA on chip, 1:1 fit, 25 C; remark: listed apart in the source
[21] = molecular target: T3, Cynomolgus monkey serum albumin; experiment: SPR, SA on chip, 1:1 fit, 25 C; remark: listed apart in the source
[22] = molecular target: T4, Rat serum albumin; experiment: SPR, SA on chip, 1:1 fit, 25 C; remark: listed apart in the source
[23] = molecular target: T5, Cow serum albumin; experiment: SPR, SA on chip, 1:1 fit, 25 C; remark: listed apart in the source
[24] = molecular target: T6, Pig serum albumin; experiment: SPR, SA on chip, 1:1 fit, 25 C; remark: listed apart in the source
[25] = molecular target: T7, Mouse serum albumin; experiment: SPR, SA on chip, 1:1 fit, 25 C; remark: listed apart in the source
[26] = molecular target: T8, Human serum albumin; experiment: SPR, SA on chip, 1:1 fit, 25 C; remark: listed apart in the source
[27] = molecular target: T9, Rabbit serum albumin; experiment: SPR, SA on chip, 25 C; remark: listed apart in the source
[28] = molecular target: T2, Dog serum albumin; experiment: SPR, SA on chip, 1:1 fit, 25 C; remark: listed apart in the source
[29] = molecular target: T3, Cynomolgus monkey serum albumin; experiment: SPR, SA on chip, 1:1 fit, 25 C; remark: listed apart in the source
[30] = molecular target: T4, Rat serum albumin; experiment: SPR, SA on chip, 1:1 fit, 25 C; remark: listed apart in the source
[31] = molecular target: T5, Cow serum albumin; experiment: SPR, SA on chip, 1:1 fit, 25 C; remark: listed apart in the source
[32] = molecular target: T6, Pig serum albumin; experiment: SPR, SA on chip, 1:1 fit, 25 C; remark: listed apart in the source
[33] = molecular target: T7, Mouse serum albumin; experiment: SPR, SA on chip, 1:1 fit, 25 C; remark: listed apart in the source
[34] = molecular target: T8, Human serum albumin; experiment: SPR, SA on chip, 1:1 fit, 25 C; remark: listed apart in the source

hCNTFR EC50 pM GeoMean (pSTAT3 in IMR-32 cells) [1]: 8.39 pM
Kd [2]: 3.7 nM
koff [2]: 0.0017 s⁻¹
kon [2]: 460000 M⁻¹ s⁻¹
Kd [3]: 1.2 nM
koff [3]: 0.0006 s⁻¹
kon [3]: 500000 M⁻¹ s⁻¹
Kd [4]: 6.1 nM
koff [4]: 0.003 s⁻¹
kon [4]: 490000 M⁻¹ s⁻¹
Kd [5]: 110 nM
koff [5]: 0.052 s⁻¹
kon [5]: 460000 M⁻¹ s⁻¹
Kd [6]: 19 nM
koff [6]: 0.0057 s⁻¹
kon [6]: 300000 M⁻¹ s⁻¹
Kd [7]: 8.8 nM
koff [7]: 0.0042 s⁻¹
kon [7]: 480000 M⁻¹ s⁻¹
Kd [8]: 0.58 nM
koff [8]: 0.00025 s⁻¹
kon [8]: 430000 M⁻¹ s⁻¹
binding result [9]: no binding (tested: up to 1000 nM)
B1: VHH-based fusion of Example 2, VHH fusion 2 (MC6.1C22-(G4Q)5-CNTF) (other)
chain: EVQLLESGGGLVQPGGSLRLSCAASGRYIDETAVAWFRQAPGKEREFVAGIGGGVDITYYADSVKGRFTISRDNSKNTLYLQMNSLRPEDTAVYYCAARPGRPLITSKVADLYPYWGQGTLVTVSSGGGGQGGGGQGGGGQGGGGQGGGGQMAFTEHSPLTPHRRDLASRSIWLARKIRSDLTALTESYVKHQGLNKNINLDSADGMPVASTDRWSELTEAERLQENLQAYRTFHVLLARLLEDQQVHFTPTEGDFHQAIHTLLLQVAAFAYQIEELMILLEYKIPRNEADGMPINVGDGGLFEKKLWGLKVLQELSQWTVRSIHDLRFISSHQTG
notes: also called Compound 2; VHH-CNTF fusion

hCNTFR EC50 pM GeoMean (pSTAT3 in IMR-32 cells) [1]: 7.09 pM
binding result [10]: no binding (tested: up to 1000 nM)
Kd [11]: 40 nM
koff [11]: 0.0032 s⁻¹
kon [11]: 79000 M⁻¹ s⁻¹
Kd [12]: 13 nM
koff [12]: 0.00086 s⁻¹
kon [12]: 68000 M⁻¹ s⁻¹
Kd [13]: 83 nM
koff [13]: 0.0063 s⁻¹
kon [13]: 75000 M⁻¹ s⁻¹
Kd [14]: 820 nM
koff [14]: 0.074 s⁻¹
kon [14]: 91000 M⁻¹ s⁻¹
Kd [15]: 190 nM
koff [15]: 0.011 s⁻¹
kon [15]: 58000 M⁻¹ s⁻¹
Kd [16]: 100 nM
koff [16]: 0.0082 s⁻¹
kon [16]: 81000 M⁻¹ s⁻¹
Kd [17]: 3.2 nM
koff [17]: 0.00024 s⁻¹
kon [17]: 76000 M⁻¹ s⁻¹
B2: VHH-based fusion of Example 1, VHH fusion 1 (CNTF-(G4Q)5-MC6.1C22.43) (other)
chain: MAFTEHSPLTPHRRDLASRSIWLARKIRSDLTALTESYVKHQGLNKNINLDSADGMPVASTDRWSELTEAERLQENLQAYRTFHVLLARLLEDQQVHFTPTEGDFHQAIHTLLLQVAAFAYQIEELMILLEYKIPRNEADGMPINVGDGGLFEKKLWGLKVLQELSQWTVRSIHDLRFISSHQTGGGGGQGGGGQGGGGQGGGGQGGGGQEVQLLESGGGLVQPGGSLRLSCAASGRYIDETAVAWFRQAPGKEREFVAGIGGGVDITYYADSVKGRFTISRDNSKNTLYLQMNSLRPEDTAVYYCAARPGRPLITSKVADLYPYWGQGTLVTVSSPP
notes: also called Compound 1; CNTF-VHH fusion

EC50 (ng/mL), PathHunter ErbB4/ErbB4 dimerization assay [18]: 33.5 ng/mL
binding result [19]: no binding (tested: up to 1000 nM)
Kd [20]: 19 nM
koff [20]: 0.0032 s⁻¹
kon [20]: 170000 M⁻¹ s⁻¹
Kd [21]: 6.1 nM
koff [21]: 0.00087 s⁻¹
kon [21]: 140000 M⁻¹ s⁻¹
Kd [22]: 52 nM
koff [22]: 0.006 s⁻¹
kon [22]: 120000 M⁻¹ s⁻¹
Kd [23]: 470 nM
koff [23]: 0.072 s⁻¹
kon [23]: 160000 M⁻¹ s⁻¹
Kd [24]: 130 nM
koff [24]: 0.012 s⁻¹
kon [24]: 93000 M⁻¹ s⁻¹
Kd [25]: 62 nM
koff [25]: 0.0088 s⁻¹
kon [25]: 140000 M⁻¹ s⁻¹
Kd [26]: 1.9 nM
koff [26]: 0.00023 s⁻¹
kon [26]: 120000 M⁻¹ s⁻¹
B3: VHH-based fusion of Example 3, VHH fusion 3 (NRG1-(G4Q)5-MC6.1C22.43) (other)
chain: SHLVKCAEKEKTFCVNGGECFMVKDLSNPSRYLCKCPNEFTGDRCQNYVMASFYKHLGIEFMEAEELYQGGGGQGGGGQGGGGQGGGGQGGGGQEVQLLESGGGLVQPGGSLRLSCAASGRYIDETAVAWFRQAPGKEREFVAGIGGGVDITYYADSVKGRFTISRDNSKNTLYLQMNSLRPEDTAVYYCAARPGRPLITSKVADLYPYWGQGTLVTVSSPP
notes: also called Compound 3; NRG1-VHH fusion

EC50 (ng/mL), PathHunter ErbB4/ErbB4 dimerization assay [18]: 112 ng/mL
binding result [27]: no binding (tested: up to 1000 nM)
Kd [28]: 2.2 nM
koff [28]: 0.0017 s⁻¹
kon [28]: 780000 M⁻¹ s⁻¹
Kd [29]: 0.94 nM
koff [29]: 0.00063 s⁻¹
kon [29]: 680000 M⁻¹ s⁻¹
Kd [30]: 3.1 nM
koff [30]: 0.003 s⁻¹
kon [30]: 970000 M⁻¹ s⁻¹
Kd [31]: 100 nM
koff [31]: 0.058 s⁻¹
kon [31]: 570000 M⁻¹ s⁻¹
Kd [32]: 15 nM
koff [32]: 0.006 s⁻¹
kon [32]: 400000 M⁻¹ s⁻¹
Kd [33]: 6.4 nM
koff [33]: 0.0042 s⁻¹
kon [33]: 660000 M⁻¹ s⁻¹
Kd [34]: 0.19 nM
koff [34]: 0.00019 s⁻¹
kon [34]: 1e+06 M⁻¹ s⁻¹
B4: VHH-based fusion of Example 4, VHH fusion 4 (MC6.1C22-(G4Q)5-NRG1) (other)
chain: EVQLLESGGGLVQPGGSLRLSCAASGRYIDETAVAWFRQAPGKEREFVAGIGGGVDITYYADSVKGRFTISRDNSKNTLYLQMNSLRPEDTAVYYCAARPGRPLITSKVADLYPYWGQGTLVTVSSGGGGQGGGGQGGGGQGGGGQGGGGQSHLVKCAEKEKTFCVNGGECFMVKDLSNPSRYLCKCPNEFTGDRCQNYVMASFYKHLGIEFMEAEELYQ
notes: also called Compound 4; VHH-NRG1 fusion
